{"source": "patent US20220056425", "about": "“RNA PO[…] FOR […] OF MODIFIED RNA” (GUARDIAN THERAPEUTICS, LLC, published 2022)", "binders": {"B1": {"name": "CT aptamer clone 10 (ssRNA)", "RNA": "GGGAGAGCAUUGCUCGUUAGUGUCGUCUCGAGUUGUGAUUACUCGUGGUCGUAAGCUAGUGACUCGGAUCAUCUAGG"}, "B2": {"name": "CT aptamer clone 7 (ssRNA)", "RNA": "GGGAGAGCAUUGCUCGUUAGUGUCGUCUUGACCUUUGCUGGUCAUGGUCGUAAAGCUAGUGACUCGGAUCAUCUAGG"}, "B3": {"name": "CT aptamer clone 3 (ssRNA)", "RNA": "GGGAGAGCAUUGCUCGUUAGUGUCGUCUUAAACUUCGUGUUUUUGGUCGUUGUAGCUAGUGACUCGGAUCAUCUAGG"}, "B4": {"name": "CT aptamer clone 4 (ssRNA)", "RNA": "B3 RNA with A30C, C33U, U34C, U35A, C36U, U38C, G39A, U42G, U53A"}, "B5": {"name": "CT aptamer clone 11 (ssRNA)", "RNA": "GGGAGAGCAUUGCUCGUUAGUGUCGUCUCAUCGAAUGGUCGGUGUGGUCGUUAAGCUAGUGACUCGGAUCAUCUAGG"}, "B6": {"name": "CT aptamer clone 8 (ssRNA)", "RNA": "B5 RNA with C29A, A34G, A35U, G37U, G38U, U39C, G44U, A53G"}, "B7": {"name": "W2.S1.1_R6F-1 (ssRNA)", "RNA": "GGGAGAGCAUUGCUCGUUAGUGGCGUUACAGCAGUUGCCACAAGGCACGUUUUAGCUAGUGACUCGGAUCAUCUAGG", "modifications": "2'-OMe at all nucleotides"}, "B8": {"name": "W2.S1.1_R6P-1 (ssRNA)", "RNA": "GGGAGAGCAUUGCUCGUUAGUGGAGCCUAUGGUUGUUGUGUGCUCCUCGCGGGAGCUAGUGACUCGGAUCAUCUAGG", "modifications": "2'-OMe at all nucleotides"}, "B9": {"name": "CT aptamer clone 1 (ssRNA)", "RNA": "GGGAGAGCAUUGCUCGUUAGUGUCGUCUCGGAGUUUAUCUCCGUGGUCGUUGAAGCUAGUGACUCGGAUCAUCUAGG"}, "B10": {"name": "CT aptamer clone 6 (ssRNA)", "RNA": "B9 RNA with G31A, G33U, U34C, U35G, U36A, U38C, C39U, C41U, G52A"}, "B11": {"name": "CT aptamer clone 5 (ssRNA)", "RNA": "GGGAGAGCAUUGCUCGUUAGUGUCGUCUCGCGAACGUUAAUCGCGUGGUCGUGAGCUAGUGACUCGGAUCAUCUAGG"}, "B12": {"name": "CT aptamer clone 2 (ssRNA)", "RNA": "GGGAGAGCAUUGCUCGUUAGUGUCGUCUUGGUAAUUCCCUUUCUGGUCGUUUAAGCUAGUGACUCGGAUCAUCUAGG"}, "B13": {"name": "CT aptamer clone 9 (ssRNA)", "RNA": "GGGAGAGCAUUGCUCGUUAGUGUCGUCUCGGGAUUUUUCCCGUGGUCGUUCAUAGCUAGUGACUCGGAUCAUCUAGG"}}, "key": {"[1]": {"molecular_target": "Cholera toxin (holotoxin and/or B subunit) (UniProt P01555;P01555;P01556 P01555:19-212,P01555:213-258,P01556:22-124)"}, "KRAS": {"molecular_target": "KRAS (UniProt P01116 P01116:1-189)", "assay": "plate binding compared to BSA; only central region printed"}}, "note": "Residue numbers refer to the chain shown, from its start."}
{"binder": "B1", "values": [{"measurement": "binding result", "setting": "[1]", "result": "binds"}]}
{"binder": "B2", "values": [{"measurement": "binding result", "setting": "[1]", "result": "binds"}]}
{"binder": "B3", "values": [{"measurement": "binding result", "setting": "[1]", "result": "binds"}]}
{"binder": "B4", "values": [{"measurement": "binding result", "setting": "[1]", "result": "binds"}]}
{"binder": "B5", "values": [{"measurement": "binding result", "setting": "[1]", "result": "binds"}]}
{"binder": "B6", "values": [{"measurement": "binding result", "setting": "[1]", "result": "binds"}]}
{"binder": "B7", "values": [{"measurement": "binding result", "setting": "KRAS", "result": "binds"}]}
{"binder": "B8", "values": [{"measurement": "binding result", "setting": "KRAS", "result": "binds"}]}
{"binder": "B9", "values": [{"measurement": "binding result", "setting": "[1]", "result": "binds"}]}
{"binder": "B10", "values": [{"measurement": "binding result", "setting": "[1]", "result": "binds"}]}
{"binder": "B11", "values": [{"measurement": "binding result", "setting": "[1]", "result": "binds"}]}
{"binder": "B12", "values": [{"measurement": "binding result", "setting": "[1]", "result": "binds"}]}
{"binder": "B13", "values": [{"measurement": "binding result", "setting": "[1]", "result": "binds"}]}
